T1: DasR (SCO5231) (Streptomyces coelicolor, UniProt Q9K492 SEQ:1-254)
T1 sequence: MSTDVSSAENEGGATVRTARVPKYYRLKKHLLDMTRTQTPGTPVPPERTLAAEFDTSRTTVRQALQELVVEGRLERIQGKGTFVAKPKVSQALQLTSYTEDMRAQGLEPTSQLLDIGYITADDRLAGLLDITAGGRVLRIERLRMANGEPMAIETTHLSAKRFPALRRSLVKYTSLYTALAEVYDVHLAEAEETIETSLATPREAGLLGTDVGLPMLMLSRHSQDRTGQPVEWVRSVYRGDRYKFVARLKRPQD

B1: crp cis-element oligo (dsDNA)
DNA 1: TGCGGCATCCTTGTGACAGATCACACTGTTTGGACT
DNA 2: AGTCCAAACAGTGTGATCTGTCACAAGGATGCCGCA
B2: crr dre oligo (dsDNA)
DNA 1: CCGTGAGGAGTGTGGTCTAGACCTCTAATCGGAACA
DNA 2: TGTTCCGATTAGAGGTCTAGACCACACTCCTCACGG

How the values were obtained:
[1] = molecular target: T1, DasR (SCO5231); experiment: EMSA; negative control; details: tags: His6; chain copies: 2; label: fluorescent
Protocol: (§1) Electromobility gel shift assay (EMSA). EMSAs were performed with fluorescent probes (10 nM) with an ALF express sequencer (Filee et al., 2001). Purified DasR (3 μM) and 1000-fold excess of non-specific DNA were used in the reaction mixture. Predicted cis-acting elements were taken from the promoter regions of actII-ORF4 (SCO5085; 5′-[…]-3′ (SEQ ID NO:530)), and redZ (SCO5881; 5′-[…]-3′ (SEQ ID NO:531)). Known cis-acting elements upstream of crr (SCO1390; […]-3′ (SEQ ID NO:532)), and crp (SCO3571; 5′-[…]-3′ (SEQ ID NO:533)) were used as positive and negative controls, respectively. The 16 nt dre sites are underlined.

[2] = molecular target: T1, DasR (SCO5231); experiment: EMSA; no free probe left; 3 uM DasR, 10 nM probe, 1000-fold non-specific DNA; complex prevented by glucosamine-6-P (data not shown); details: tags: His6; chain copies: 2; label: fluorescent
Protocol: as §1

Row | Binder | binding result [1] | binding result [2]
1 | B1 | no binding | 
2 | B2 |  | binds

Source: patent publication US20110143394, “Methods and Means for Metabolic Engineering and Improved Product Formation by Micro-Organisms” (Universiteit Leiden, published 2011)
